Experimental data: patent US20230131338A1

Columns and labels:
[1] = target: human FXI (zymogen; Factor XI protein, human plasma, Enzyme Research Laboratories cat. HFXI 1111) (human) (UniProt P03951); assay: SPR (Biacore 8K), mAb captured via anti-human Fc, plasma-derived hFXI injected, 25°C
[2] = target: human FXI (zymogen; Factor XI protein, human plasma, Enzyme Research Laboratories cat. HFXI 1111) (human) (UniProt P03951); assay: SPR (Biacore 8K), mAb captured via anti-human Fc, plasma-derived hFXI injected, 37°C
[3] = target: human FXIa (activated; Factor XIa protein, human plasma, Enzyme Research Laboratories cat. HFXIa 1111a) (human) (UniProt P03951); assay: SPR (Biacore 8K), mAb captured via anti-human Fc, plasma-derived hFXIa injected, 25°C
[4] = target: human FXIa (activated; Factor XIa protein, human plasma, Enzyme Research Laboratories cat. HFXIa 1111a) (human) (UniProt P03951); assay: SPR (Biacore 8K), mAb captured via anti-human Fc, plasma-derived hFXIa injected, 37°C

25 nM Ag Bound (RU) [1]: 1.3 RU
25 nM Ag Bound (RU) [2]: 3.2 RU
25 nM Ag Bound (RU) [3]: -1.4 RU
25 nM Ag Bound (RU) [4]: 0.3 RU
Substance: Isotype control mAb [REGN1945] (antibody)
